Measured values reported in patent CN110498854A (UNIV ARMY MEDICAL, dated 2019).

What was measured:
金黄色葡萄球菌肠毒素B (SEB) [1] = molecular target: T1, 金黄色葡萄球菌肠毒素B (SEB) (Staphylococcus aureus (ATCC BAA-1556), UniProt P01552 28-266); test: ELISA, antigen coated
金黄色葡萄球菌肠毒素B (SEB) [2] = molecular target: T1, 金黄色葡萄球菌肠毒素B (SEB)

T1 sequence (P01552 28-266, tags left off): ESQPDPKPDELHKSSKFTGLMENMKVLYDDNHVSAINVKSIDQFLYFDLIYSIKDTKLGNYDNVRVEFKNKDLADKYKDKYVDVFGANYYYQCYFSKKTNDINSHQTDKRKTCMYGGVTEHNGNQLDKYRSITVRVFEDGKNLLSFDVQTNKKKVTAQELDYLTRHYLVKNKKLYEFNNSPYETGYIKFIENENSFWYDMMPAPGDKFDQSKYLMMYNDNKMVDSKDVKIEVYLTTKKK

B1: 全人源SEB单克隆抗体M0313 (antibody, V domains shown)
VH: EVQLVQSGGGLVQPGGSLRLSCAASGFTLSNYGMSWVRQSPGKGLEWVSGISGGSGSTCYADFVKGRFTISRDKSKNTLSLEMNSLRAEDRAVYYCAKDREYYNSGYYYFPYQYAMDVWGQGTTVTVSS
VL: QSVLTQPPSASGTPGQRVTISCSGGRPNIGGNSVYWYQQFPGTSPKLLIYTNDQRPSGVPDRFSGSKSGTSASLAISGLRSEDEADYYCAAWDDSLSAYVFGAGTKVTVL
For B1, the EC50 (金黄色葡萄球菌肠毒素B (SEB) [1]) was 7.3 ng/mL, the Kd (金黄色葡萄球菌肠毒素B (SEB) [2]) was 3.22 nM and the koff (金黄色葡萄球菌肠毒素B (SEB) [2]) was 0.00292 s⁻¹. The kon (金黄色葡萄球菌肠毒素B (SEB) [2]) was 908000 M⁻¹ s⁻¹.
